Reference: US20220193237A1 (Bristol-Myers Squibb, published 2022)

What was measured:
monomeric human CTLA-4 [1] = molecular target: T1, monomeric human CTLA-4 (human, UniProt P16410 36-161, limits assumed); experiment: SPR, captured Fab, pH 6.0
T1 construct: Soluble monomeric analyte in SPR; also called huCTLA-4
T1 sequence: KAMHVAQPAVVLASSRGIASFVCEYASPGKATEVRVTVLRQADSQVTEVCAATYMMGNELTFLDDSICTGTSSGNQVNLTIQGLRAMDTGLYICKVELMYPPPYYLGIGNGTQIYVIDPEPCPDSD
Method: (§1) Binding of selected variants to human CTLA-4 was determined essentially as described in Example 3. […] Nomenclature and sequences for these antibodies is provided at Tables 6 and 7, and in the sequence listing as summarized at Table 8.
(§2) Monomeric human CTLA-4 was flowed as analyte with up to 2 μM top concentration. Between cycles, the capture surface was regenerated with 75 mM phosphoric acid. Experiments were run on a BIACORE® T200 instrument at 37° C. Running buffers were HEPES buffered saline for pH 7.4 experiments and Bis-Tris buffered saline for lower pH experiments. […] Double referenced sensorgrams were fitted to a 1:1 Langmuir binding model with mass transport to determine equilibrium dissociation constants (KD), as well as association (kₐ) and dissociation (kd) rate constants where appropriate.

monomeric human CTLA-4 [2] = molecular target: T1, monomeric human CTLA-4; experiment: SPR, captured Fab, pH 7.4
Method: as §1, §2

monomeric human CTLA-4 [3] = molecular target: T1, monomeric human CTLA-4; experiment: SPR, captured Fab, pH 6.0 vs 7.4
Method: as §1, §2

B1: ipi.7 Fab (Fab, V domains shown)
VH: QVQLVESGGGVVQPGRSLRLSCAASGFTFSSYHMHWVRQAPGKGLEWVTFISYDGNHKYYADSVKGRFTISRDNSKNTLYLQMNSLRAEDTAIYYCARTGWLGPFDYWGQGTLVTVSS
VL: not shown
notes: Tested as monovalent Fab
Kd (monomeric human CTLA-4 [1]): 1.7 nM
kon (monomeric human CTLA-4 [1]): 1.2e+06 M⁻¹ s⁻¹
t1/2 (monomeric human CTLA-4 [1]): 347 s
Kd (monomeric human CTLA-4 [2]): 1.5 nM
kon (monomeric human CTLA-4 [2]): 1e+06 M⁻¹ s⁻¹
t1/2 (monomeric human CTLA-4 [2]): 462 s
KD 7.4/6 (APBP) (monomeric human CTLA-4 [3]): 0.8
ka 6/7.4 (monomeric human CTLA-4 [3]): 1.1
t1/2 6/7.4 (monomeric human CTLA-4 [3]): 0.7

B2: ipi.20 Fab (Fab, V domains shown)
VH: QVQLVESGGGVVQPGRSLRLSCAASGFTFSSYTMHWVRQAPGKGLEWVTFISYDGNNKYYADSVKGRFTISRDNSKNTLYLQMNSLRAEDTAIYYCARTGWLGPFDYWGQGTLVTVSS
VL: not shown
notes: Tested as monovalent Fab
Kd (monomeric human CTLA-4 [1]): 32 nM
kon (monomeric human CTLA-4 [1]): 1.6e+06 M⁻¹ s⁻¹
t1/2 (monomeric human CTLA-4 [1]): 14 s
Kd (monomeric human CTLA-4 [2]): 84 nM
kon (monomeric human CTLA-4 [2]): 790000 M⁻¹ s⁻¹
t1/2 (monomeric human CTLA-4 [2]): 11 s
KD 7.4/6 (APBP) (monomeric human CTLA-4 [3]): 2.6
ka 6/7.4 (monomeric human CTLA-4 [3]): 2
t1/2 6/7.4 (monomeric human CTLA-4 [3]): 1.3

B3: ipi.59 Fab (Fab, V domains shown)
VH: QVQLVESGGGVVQPGRSLRLSCAASGFTFSSYTMHWVRQAPGKGLEWVTFISYDGHNKYYADSVKGRFTISRDNSKNTLYLQMNSLRAEDTAIYYCARTGWLGPFDYWGQGTLVTVSS
VL: not shown
notes: Tested as monovalent Fab
Kd (monomeric human CTLA-4 [1]): 11 nM
kon (monomeric human CTLA-4 [1]): 1e+06 M⁻¹ s⁻¹
t1/2 (monomeric human CTLA-4 [1]): 63 s
Kd (monomeric human CTLA-4 [2]): 21 nM
kon (monomeric human CTLA-4 [2]): 810000 M⁻¹ s⁻¹
t1/2 (monomeric human CTLA-4 [2]): 41 s
KD 7.4/6 (APBP) (monomeric human CTLA-4 [3]): 1.9
ka 6/7.4 (monomeric human CTLA-4 [3]): 1.3
t1/2 6/7.4 (monomeric human CTLA-4 [3]): 1.5

B4: ipi.66 Fab (Fab, V domains shown)
VH: QVQLVESGGGVVQPGRSLRLSCAASGFTFSSYTMHWVRQAPGKGLEWVTFISYDGHNKYYADSVKGRFTISRDNSKNTLYLQMNSLRAEDTAIYYCARTGWLGPFDYWGQGTLVTVSS
VL: not shown
notes: Tested as monovalent Fab
Kd (monomeric human CTLA-4 [1]): 3.5 nM
kon (monomeric human CTLA-4 [1]): 1.2e+06 M⁻¹ s⁻¹
t1/2 (monomeric human CTLA-4 [1]): 161 s
Kd (monomeric human CTLA-4 [2]): 26 nM
kon (monomeric human CTLA-4 [2]): 700000 M⁻¹ s⁻¹
t1/2 (monomeric human CTLA-4 [2]): 36 s
KD 7.4/6 (APBP) (monomeric human CTLA-4 [3]): 7.6
ka 6/7.4 (monomeric human CTLA-4 [3]): 1.8
t1/2 6/7.4 (monomeric human CTLA-4 [3]): 4.3

B5: ipi.69 Fab (Fab, V domains shown)
VH: QVQLVESGGGVVQPGRSLRLSCAASGFTFSHYTMHWVRQAPGKGLEWVTFISYDGHNKYYADSVKGRFTISRDNSKNTLYLQMNSLRAEDTAIYYCARTGWLGPFDYWGQGTLVTVSS
VL: not shown
notes: Tested as monovalent Fab
Kd (monomeric human CTLA-4 [1]): 4.4 nM
kon (monomeric human CTLA-4 [1]): 1.1e+06 M⁻¹ s⁻¹
t1/2 (monomeric human CTLA-4 [1]): 144 s
Kd (monomeric human CTLA-4 [2]): 28 nM
kon (monomeric human CTLA-4 [2]): 820000 M⁻¹ s⁻¹
t1/2 (monomeric human CTLA-4 [2]): 30 s
KD 7.4/6 (APBP) (monomeric human CTLA-4 [3]): 6.3
ka 6/7.4 (monomeric human CTLA-4 [3]): 1.3
t1/2 6/7.4 (monomeric human CTLA-4 [3]): 4.7

B6: ipi.71 Fab (Fab, V domains shown)
VH: QVQLVESGGGVVQPGRSLRLSCAASGFTFSHYTMHWVRQAPGKGLEWVTFISYDGHNKYYADSVKGRFTISRDNSKNTLYLQMNSLRAEDTAIYYCARTGWLGPFDYWGQGTLVTVSS
VL: not shown
notes: Tested as monovalent Fab
Kd (monomeric human CTLA-4 [1]): 1.6 nM
kon (monomeric human CTLA-4 [1]): 1.5e+06 M⁻¹ s⁻¹
t1/2 (monomeric human CTLA-4 [1]): 289 s
Kd (monomeric human CTLA-4 [2]): 39 nM
kon (monomeric human CTLA-4 [2]): 740000 M⁻¹ s⁻¹
t1/2 (monomeric human CTLA-4 [2]): 24 s
KD 7.4/6 (APBP) (monomeric human CTLA-4 [3]): 25
ka 6/7.4 (monomeric human CTLA-4 [3]): 2
t1/2 6/7.4 (monomeric human CTLA-4 [3]): 12.2

B7: ipi.82 Fab (Fab, V domains shown)
VH: QVQLVESGGGVVQPGRSLRLSCAASGFTFSHYTMHWVRQAPGKGLEWVTFISYDGNNKYYADSVKGRFTISRDNSKNTLYLQMNSLRAEDTAIYYCARHGWLGPFDYWGQGTLVTVSS
VL: not shown
notes: Tested as monovalent Fab
Kd (monomeric human CTLA-4 [1]): 31 nM
kon (monomeric human CTLA-4 [1]): 1.4e+06 M⁻¹ s⁻¹
t1/2 (monomeric human CTLA-4 [1]): 16 s
Kd (monomeric human CTLA-4 [2]): 130 nM
KD 7.4/6 (APBP) (monomeric human CTLA-4 [3]): 4.4

B8: ipi.84 Fab (Fab, V domains shown)
VH: QVQLVESGGGVVQPGRSLRLSCAASGFTFSHYTMHWVRQAPGKGLEWVTFISYDGHNKYYADSVKGRFTISRDNSKNTLYLQMNSLRAEDTAIYYCARHGWLGPFDYWGQGTLVTVSS
VL: not shown
notes: Tested as monovalent Fab
Kd (monomeric human CTLA-4 [1]): 16 nM
kon (monomeric human CTLA-4 [1]): 1.3e+06 M⁻¹ s⁻¹
t1/2 (monomeric human CTLA-4 [1]): 35 s
Kd (monomeric human CTLA-4 [2]): 120 nM
KD 7.4/6 (APBP) (monomeric human CTLA-4 [3]): 7.7

B9: ipi.86 Fab (Fab, V domains shown)
VH: QVQLVESGGGVVQPGRSLRLSCAASGFTFSHYTMHWVRQAPGKGLEWVTFISYDGNNKYYADSVKGRFTISRDNSKNTLYLQMNSLRAEDTAIYYCARHGWLGPFDYWGQGTLVTVSS
VL: not shown
notes: Tested as monovalent Fab
Kd (monomeric human CTLA-4 [1]): 12 nM
kon (monomeric human CTLA-4 [1]): 1.6e+06 M⁻¹ s⁻¹
t1/2 (monomeric human CTLA-4 [1]): 36 s
Kd (monomeric human CTLA-4 [2]): 180 nM
KD 7.4/6 (APBP) (monomeric human CTLA-4 [3]): 15

B10: ipi.88 Fab (Fab, V domains shown)
VH: QVQLVESGGGVVQPGRSLRLSCAASGFTFSHYTMHWVRQAPGKGLEWVTFISYDGHNKYYADSVKGRFTISRDNSKNTLYLQMNSLRAEDTAIYYCARHGWLGPFDYWGQGTLVTVSS
VL: not shown
notes: Tested as monovalent Fab
Kd (monomeric human CTLA-4 [1]): 6.5 nM
kon (monomeric human CTLA-4 [1]): 2e+06 M⁻¹ s⁻¹
t1/2 (monomeric human CTLA-4 [1]): 53 s
Kd (monomeric human CTLA-4 [2]): 170 nM
KD 7.4/6 (APBP) (monomeric human CTLA-4 [3]): 27

B11: ipi.92 Fab (Fab, V domains shown)
VH: QVQLVESGGGVVQPGRSLRLSCAASGFTFSHYTMHWVRQAPGKGLEWVTFISYDGHNKYYADSVKGRFTISRDNSKNTLYLQMNSLRAEDTAIYYCARHGWLGPFDYWGQGTLVTVSS
VL: EIVLTQSPGTLSLSPGERATLSCRASQEVGDSELAWYQQKPGQAPRLLIYGAFSRATGIPDRFSGSGSGTDFTLTISRLEPEDFAVYYCQQYGSSPWTFGQGTKVEIKR
notes: Tested as monovalent Fab
Kd (monomeric human CTLA-4 [1]): 17 nM
kon (monomeric human CTLA-4 [1]): 1.8e+06 M⁻¹ s⁻¹
t1/2 (monomeric human CTLA-4 [1]): 22 s
Kd (monomeric human CTLA-4 [2]): > 1000 nM
KD 7.4/6 (APBP) (monomeric human CTLA-4 [3]): > 59

B12: ipi.93 Fab (Fab, V domains shown)
VH: QVQLVESGGGVVQPGRSLRLSCAASGFTFSSYTMHWVRQAPGKGLEWVTFISYDGNNKYYADSVKGRFTISRDNSKNTLYLQMNSLRAEDTAIYYCARTGWLGPFDYWGQGTLVTVSS
VL: EIVLTQSPGTLSLSPGERATLSCRASQEVGDSELAWYQQKPGQAPRLLIYGAFSRATGIPDRFSGSGSGTDFTLTISRLEPEDFAVYYCQQYGSSPWTFGQGTKVEIKR
notes: Tested as monovalent Fab
Kd (monomeric human CTLA-4 [1]): 13 nM
kon (monomeric human CTLA-4 [1]): 1.7e+06 M⁻¹ s⁻¹
t1/2 (monomeric human CTLA-4 [1]): 32 s
Kd (monomeric human CTLA-4 [2]): 210 nM
KD 7.4/6 (APBP) (monomeric human CTLA-4 [3]): 16

B13: ipi.94 Fab (Fab, V domains shown)
VH: QVQLVESGGGVVQPGRSLRLSCAASGFTFSHYTMHWVRQAPGKGLEWVTFISYDGNNKYYADSVKGRFTISRDNSKNTLYLQMNSLRAEDTAIYYCARTGWLGPFDYWGQGTLVTVSS
VL: EIVLTQSPGTLSLSPGERATLSCRASQEVGDSELAWYQQKPGQAPRLLIYGAFSRATGIPDRFSGSGSGTDFTLTISRLEPEDFAVYYCQQYGSSPWTFGQGTKVEIKR
notes: Tested as monovalent Fab
Kd (monomeric human CTLA-4 [1]): 5.2 nM
kon (monomeric human CTLA-4 [1]): 1.9e+06 M⁻¹ s⁻¹
t1/2 (monomeric human CTLA-4 [1]): 70 s
Kd (monomeric human CTLA-4 [2]): 270 nM
KD 7.4/6 (APBP) (monomeric human CTLA-4 [3]): 52

B14: ipi.95 Fab (Fab, V domains shown)
VH: QVQLVESGGGVVQPGRSLRLSCAASGFTFSHYTMHWVRQAPGKGLEWVTFISYDGHNKYYADSVKGRFTISRDNSKNTLYLQMNSLRAEDTAIYYCARTGWLGPFDYWGQGTLVTVSS
VL: EIVLTQSPGTLSLSPGERATLSCRASQEVGDSELAWYQQKPGQAPRLLIYGAFSRATGIPDRFSGSGSGTDFTLTISRLEPEDFAVYYCQQYGSSPWTFGQGTKVEIKR
notes: Tested as monovalent Fab
Kd (monomeric human CTLA-4 [1]): 2.8 nM
kon (monomeric human CTLA-4 [1]): 1.9e+06 M⁻¹ s⁻¹
t1/2 (monomeric human CTLA-4 [1]): 126 s
Kd (monomeric human CTLA-4 [2]): 280 nM
KD 7.4/6 (APBP) (monomeric human CTLA-4 [3]): 99
